The source of these data is US20150225755A1, “Ergothioneine Production Through Metabolic Engineering” (priority 2012, published 2015).

Data set [1] deals with EgtB (Mycolicibacterium smegmatis, UniProt A0R5N0). The data set can be described thus: EgtB activity using hercynine (2) and Cys as substrates. Type of data set: biochemical, Mycobacterium smegmatis. The source says:
(§1) Two different assays were developed for both EgtB and OvoA catalysis (FIG. 3). Both EgtB and OvoA are proposed to be oxidases,^[9-10] which catalyze the oxidative coupling between His and Cys to form the C—S bond. At the same time, sulfur is oxidized to sulfoxide. The overall process is a four-electron oxidation process (FIG. 1) similar to the case of the isopenicillin N synthase.^[12] In the initial report by Seebeck, they monitored the reaction by monitoring the absorption changes at 260 nm because the oxidative products (3 or 6, FIG. 1) have absorptions in this region. However, it is not very sensitive. Oxygen is needed because there was no detectable product formation under anaerobic conditions. Based on this feature, we developed the EgtB and OvoA activity assays by monitoring the oxygen consumption rate (FIG. 3-I-B) using the NeoFoxy oxygen electrode (FIG. 3-I-A). This assay (FIG. 3-I-B) was used as the routine assay to optimize the conditions for EgtB and OvoA activities.
According to the initial reports from Seebeck,^[9-10] EgtB and OvoA distinguish themselves from each other by both their substrate preferences and their product C—S bond regio-selectivity (FIG. 1). The C—S bond in ergothioneine (5) is located at the histidine ε-carbon, while for ovothiol, the C—S bond is located at the histidine δ-carbon (8). Their substrate preferences are also different. […]

The subject of data set [2] is C[N+](C)(C)[C@@H](Cc1cnc[nH]1)C(=O)[O-]. Description: OvoA activity, oxygen consumption assay / kinetic analysis. The conditions noted are these: other: air-saturated HEPES buffer; coupling with Cys. In kind it is biochemical, Erwinia tasmaniensis.
From the text: as §1
(§2) For oxygenase or oxidase-catalyzed reaction, potential problems include the presence of side-reactions, non-productive oxygen consumption, or oxidative inactivation of enzyme itself. Multiple activity assays will provide useful information to analyze those situations. To achieve this goal, besides the oxygen consumption assay, we have also developed a ^1H-NMR assay to directly monitor the product formation (FIG. 3-II). In ^1H-NMR, the chemical shifts of the imidazole H-atoms in both the products (3 and 6, FIG. 3-II) and the substrates (1 and 2) are well-separated from the rest of the reaction mixture. Thus, the reaction mixture can be analyzed routinely without the need of a product separation. In FIG. 3-II-B (OvoA catalysis), the signals with chemical shifts at 6.93 ppm and 7.70 ppm are assigned to the two histidine imidazole H-atoms. The signal at 7.83 ppm is from the imidazole H-atom of the oxidative coupling product 6. While for the oxidative product 3 (EgtB catalysis), its imidazole H-atom has a chemical shift of 7.10 ppm (FIG. 3-II-B). […]

In data set [3] the test system is N[C@@H](CS)C(=O)O. Described as above. Conditions: other: air-saturated HEPES buffer; coupling with hercynine (2). Type of data set: biochemical, Erwinia tasmaniensis.
From the text: as §1, §2

The target in data set [4] is OvoA (Erwinia tasmaniensis, UniProt B2VFD8). The data set is described as above. Type of data set: biochemical. The conditions noted are these: air-saturated HEPES buffer.
From the text: as §1, §2

In data set [5] the target is T1, NcEgt-1 (Neurospora crassa, UniProt Q7RX33).
T1 sequence (Q7RX33 whole entry, looked up): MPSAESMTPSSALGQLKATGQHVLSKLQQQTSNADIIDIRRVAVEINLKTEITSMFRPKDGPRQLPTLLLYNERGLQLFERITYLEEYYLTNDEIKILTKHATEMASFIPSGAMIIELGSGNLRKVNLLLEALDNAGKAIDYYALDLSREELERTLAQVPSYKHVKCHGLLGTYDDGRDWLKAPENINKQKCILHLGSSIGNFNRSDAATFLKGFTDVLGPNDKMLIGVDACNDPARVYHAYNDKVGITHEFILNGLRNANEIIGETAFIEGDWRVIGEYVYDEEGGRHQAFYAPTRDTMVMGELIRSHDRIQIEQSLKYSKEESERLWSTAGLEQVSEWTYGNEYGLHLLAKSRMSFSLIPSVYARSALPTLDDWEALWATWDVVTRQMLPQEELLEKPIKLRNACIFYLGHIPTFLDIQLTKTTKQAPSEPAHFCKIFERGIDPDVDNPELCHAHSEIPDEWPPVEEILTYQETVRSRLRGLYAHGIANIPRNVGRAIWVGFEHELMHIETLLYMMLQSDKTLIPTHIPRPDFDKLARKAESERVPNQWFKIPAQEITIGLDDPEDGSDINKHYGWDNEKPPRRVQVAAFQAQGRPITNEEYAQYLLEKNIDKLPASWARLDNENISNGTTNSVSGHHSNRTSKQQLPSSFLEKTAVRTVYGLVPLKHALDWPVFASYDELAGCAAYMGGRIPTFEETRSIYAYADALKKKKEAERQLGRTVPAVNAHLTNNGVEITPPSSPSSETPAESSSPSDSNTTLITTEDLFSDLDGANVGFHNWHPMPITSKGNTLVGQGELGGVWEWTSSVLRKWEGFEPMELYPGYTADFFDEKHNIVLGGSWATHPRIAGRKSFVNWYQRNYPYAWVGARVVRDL
The data set can be described thus: NcEgt-1 catalysed oxidative coupling of hercynine (2) and Cys to form 4. In kind it is biochemical. The source says: In the above section, we have successfully solved the EgtE problems, which enable ergothioneine production through metabolic engineering. However, the original ergothioneine biosynthetic pathway (FIG. 1A) is not efficient. To solve this problem, we initiated the search for enzymes that can oxidatively couples hercynine (2) and Cys directly as outlined in FIG. 2. Two of such enzymes (OvoA in FIG. 1B and NcEgt-1 from Neurospora crassa^[13]) have been identified by a combination of bioinformatics analysis and activity analysis using oxygen and ^1H-NMR assays.
Based on this exciting discovery, we have also examined another protein NcEgt-lfrom Neurospora crassa^[13].

With `N[C@@H](CS)C(=O)O` [Cys, cysteine], the “recognition as substrate by EgtB” value in data set [1] is listed as “cannot recognize Cys as the substrate”.

In general, Km refers to the substrate concentration at which the rate is half of its maximum. OvoA (Erwinia tasmaniensis Et1/99): the Km in data set [2] was 395 ± 30 µM; in data set [3] it was 3190 ± 410 µM.

Consider `C[N+](C)(C)[C@@H](Cc1cnc[nH]1)C(=O)[O-]` [hercynine], for which the “kcat for the oxidative coupling between Cys and hercynine (2)” value in data set [4] was 4.5 ± 0.083 s⁻¹.

B1: NcEgt-1: enzyme from Neurospora crassa that catalyzes oxidative coupling of hercynine and cysteine (protein)
chain: MPSAESMTPSSALGQLKATGQHVLSKLQQQTSNADIIDIRRVAVEINLKTEITSMFRPKDGPRQLPTLLLYNERGLQLFERITYLEEYYLTNDEIKILTKHATEMASFIPSGAMIIELGSGNLRKVNLLLEALDNAGKAIDYYALDLSREELERTLAQVPSYKHVKCHGLLGTYDDGRDWLKAPENINKQKCILHLGSSIDKVGITHEFILNGLRNANEIIGETAFIEGDWRVIGEYVYDEEGGRHQAFYAPTRDTMVMGELIRSHDRIQIEQSLKYSKEESERLWSTAGLEQVSEWTYGNEYGLHLLAKSRMSFSLIPSVYARSALPTLDDWEALWATWDVVTRQMLPQEELLEKPIKLRNACIFYLGHIPTFLDIQLTKTTKQAPSEPAHFCKIFERGIDPDVDNPELCHAHSEIPDEWPPVEEILTYQETVRSRLRGLYAHGIANIPRNVGRAIWVGFEHELMHIETLLYMMLQSDKTLIPTHIPRPDFDKLARKAESERVPNQWFKIPAQEITIGLDDPEDGSDINKHYGWDNEKPPRRVQVAAFQAQGRPITNEEYAQYLLEKNIDKLPASWARLDNENISNGTTNSVSGHHSNRTSKQQLPSSFLEKTAVRTVYGLVPLKHALDWPVFASYDELAGCAAYMGGRIPTFEETRSIYAYADALKKKKEAERQLGRTVPAVNAHLTNNGVEITPPSSPSSETPAESSSPSDSNTTLITTEDLFSDLDGANVGFHNWHPMPITSKGNTLVGQGELGGVWEWTSSVLRKWEGFEPMELYPGYTADFFDEKHNIVLGGSWATHPRIAGRKSFVNWYQRNYPYAWVGARVVRDL
modifications: Neurospora crassa OR74A
notes: enzyme from Neurospora crassa that catalyzes oxidative coupling of hercynine and cysteine
Consider B1, for which the “activity of 2→4 conversion compared with OvoA” value in data set [5] is recorded as “same order of magnitude as OvoA”.
